Paper PMC4104448

Molecular target: Biotinylated human CI-MPR domains I-XV (residues 41Q-G2293) (human) (UniProt P11717)
Assay: SPR; equilibrium binding; about 1,000 RU of biotinylated ligand on a streptavidin-coupled CM5 chip, LIMP-2 as analyte; Biacore T100, 25 °C, 10 mM HEPES pH 7.5, 150 mM NaCl, 0.005% Tween 20; one-site saturation binding model

Sequence of Biotinylated human CI-MPR domains I-XV (residues 41Q-G2293) (human) (P11717 41-2293): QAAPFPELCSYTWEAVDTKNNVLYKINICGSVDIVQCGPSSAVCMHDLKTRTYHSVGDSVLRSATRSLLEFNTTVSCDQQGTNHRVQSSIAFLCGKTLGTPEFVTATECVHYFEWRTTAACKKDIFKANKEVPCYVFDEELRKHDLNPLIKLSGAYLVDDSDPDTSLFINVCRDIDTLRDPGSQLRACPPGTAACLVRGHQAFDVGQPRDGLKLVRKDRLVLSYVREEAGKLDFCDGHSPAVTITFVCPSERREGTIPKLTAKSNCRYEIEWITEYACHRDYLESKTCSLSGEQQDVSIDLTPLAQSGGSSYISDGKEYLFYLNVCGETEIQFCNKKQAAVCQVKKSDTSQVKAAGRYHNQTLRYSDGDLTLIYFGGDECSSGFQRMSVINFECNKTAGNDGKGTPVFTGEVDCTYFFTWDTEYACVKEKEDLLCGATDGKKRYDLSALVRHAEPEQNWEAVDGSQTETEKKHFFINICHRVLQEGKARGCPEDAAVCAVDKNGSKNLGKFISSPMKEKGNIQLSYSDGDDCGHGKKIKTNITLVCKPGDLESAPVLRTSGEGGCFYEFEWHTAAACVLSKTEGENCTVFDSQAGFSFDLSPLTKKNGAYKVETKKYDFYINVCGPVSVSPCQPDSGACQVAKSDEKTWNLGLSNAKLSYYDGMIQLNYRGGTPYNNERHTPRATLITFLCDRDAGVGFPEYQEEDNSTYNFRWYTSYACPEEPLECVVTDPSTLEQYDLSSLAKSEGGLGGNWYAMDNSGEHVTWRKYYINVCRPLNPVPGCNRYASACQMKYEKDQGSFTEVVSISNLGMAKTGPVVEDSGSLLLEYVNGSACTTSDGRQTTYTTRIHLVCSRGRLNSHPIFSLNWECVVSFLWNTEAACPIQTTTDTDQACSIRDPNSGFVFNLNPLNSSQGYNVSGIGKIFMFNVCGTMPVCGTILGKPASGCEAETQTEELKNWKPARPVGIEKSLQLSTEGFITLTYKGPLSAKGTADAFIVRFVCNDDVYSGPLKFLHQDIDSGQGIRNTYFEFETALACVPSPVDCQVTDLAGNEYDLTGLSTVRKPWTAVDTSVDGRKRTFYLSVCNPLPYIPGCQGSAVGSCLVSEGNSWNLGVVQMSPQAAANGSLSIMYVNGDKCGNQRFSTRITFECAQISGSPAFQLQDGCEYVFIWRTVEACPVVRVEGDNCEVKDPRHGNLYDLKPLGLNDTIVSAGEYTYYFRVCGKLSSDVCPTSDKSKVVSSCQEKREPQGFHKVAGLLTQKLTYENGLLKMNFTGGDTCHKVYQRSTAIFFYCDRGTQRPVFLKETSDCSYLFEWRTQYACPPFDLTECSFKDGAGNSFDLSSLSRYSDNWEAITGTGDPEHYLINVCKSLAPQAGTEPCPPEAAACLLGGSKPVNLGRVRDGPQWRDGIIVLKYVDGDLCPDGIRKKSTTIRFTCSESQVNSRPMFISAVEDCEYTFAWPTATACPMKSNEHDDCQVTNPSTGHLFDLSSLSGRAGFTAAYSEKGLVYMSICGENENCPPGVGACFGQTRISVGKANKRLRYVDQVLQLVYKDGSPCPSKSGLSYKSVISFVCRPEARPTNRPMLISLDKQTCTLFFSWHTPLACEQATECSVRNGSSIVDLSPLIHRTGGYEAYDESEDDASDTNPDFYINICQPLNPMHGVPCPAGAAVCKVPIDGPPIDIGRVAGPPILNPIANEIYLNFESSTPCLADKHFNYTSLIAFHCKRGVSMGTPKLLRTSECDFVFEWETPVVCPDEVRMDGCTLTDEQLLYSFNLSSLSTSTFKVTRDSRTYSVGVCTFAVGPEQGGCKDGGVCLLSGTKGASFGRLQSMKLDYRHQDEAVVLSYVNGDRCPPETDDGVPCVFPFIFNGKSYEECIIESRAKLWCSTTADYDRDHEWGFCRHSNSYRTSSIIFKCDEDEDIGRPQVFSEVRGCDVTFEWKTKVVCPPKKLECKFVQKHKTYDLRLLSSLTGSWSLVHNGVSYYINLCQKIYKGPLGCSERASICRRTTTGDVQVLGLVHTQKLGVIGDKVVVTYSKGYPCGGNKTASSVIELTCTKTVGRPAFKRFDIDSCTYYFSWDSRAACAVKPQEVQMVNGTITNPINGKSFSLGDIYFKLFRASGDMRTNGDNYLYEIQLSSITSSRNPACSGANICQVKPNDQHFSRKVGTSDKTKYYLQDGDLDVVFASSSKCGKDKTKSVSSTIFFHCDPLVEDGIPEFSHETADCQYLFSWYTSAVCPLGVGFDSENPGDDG

Kd [nM] | Substance
2200 | Human LIMP-2 luminal domain (residues 28-431) produced from HEK293S (GnTI-) cells, with limited glycosylation (from UniProt Q14108 28-431) (domain or fragment)
970 | Human LIMP-2 luminal domain (residues 28-431) produced from HEK293T cells, with full glycosylation (from UniProt Q14108 28-431) (domain or fragment)
